According to IntAct's records for PubMed 22307274:

B1: Histone chaperone RTT106 (Saccharomyces cerevisiae), P40161 (parent)
chain: MSKLFLDELPESLSRKIGTVVRVLPSSLEIFEELYKYALNENSNDRSGRHKKPRIDVSSDLLKTDEISETNTIFKLEGVSVLSPLRKKLDLVFYLSNVDGSPVITLLKGNDRELSIYQLNKNIKMASFLPVPEKPNLIYLFMTYTSCEDNKFSEPVVMTLNKENTLNQFKNLGLLDSNVTDFEKCVEYIRKQAILTGFKISNPFVNSTLVDTDAEKINSFHLQCHRGTKEGTLYFLPDHIIFGFKKPILLFDASDIESITYSSITRLTFNASLVTKDGEKYEFSMIDQTEYAKIDDYVKRKQMKDKSMSEELKAKSKSKGQATDGTADQPSILQEATRQMQDEKKAGVFSDDDEENDQNFEAESDLSDGSGQESSDGAEDGEEAEEDDEEDDEEEDKKGQSALNRDNSFASINGQPEQELQYKEFKEPLELEDIPIEIDNDDDEDDEDGSGVEYD

Variants of: B1
Details: with h3_yeast HHT1, P61830

Variant	effect of a mutation on the interaction
I259A	decreasing interaction strength
Y261A	disrupting interaction strength
F269A	disrupting interaction strength
Q288A	decreasing interaction strength
Y291A	disrupting interaction strength
I294A	disrupting interaction strength

Variants of: B1
Details: with h3_yeast HHT1, P61830
Remark: another data set of the same source

Variant	effect of a mutation on the interaction
I259A	disrupting interaction strength
D295A	disrupting interaction strength
Y297A	disrupting interaction strength
